Numbering of substitutions follows the chain as printed.
T1: human TNFR1-Fc fusion protein (human, UniProt P19438 29-211)
T1 construct: range 29-211; Made in stably transfected HEK293 cells; coated on ELISA plates or immobilised on QCM chips; also called huTNFR1-Fc; human TNFR-Fc; not shown: Fc part from vector pSecTagL1-Fc
T1 sequence (looked up): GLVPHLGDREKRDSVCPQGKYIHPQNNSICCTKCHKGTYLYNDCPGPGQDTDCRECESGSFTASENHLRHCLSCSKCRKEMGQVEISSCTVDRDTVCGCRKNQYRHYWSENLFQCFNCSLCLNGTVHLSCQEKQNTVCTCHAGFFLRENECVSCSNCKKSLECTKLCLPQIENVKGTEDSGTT

T2: human TNFR1 on cells (HT1080, HeLa, Kym-1) (human, UniProt P19438 30-455)
T2 sequence (looked up): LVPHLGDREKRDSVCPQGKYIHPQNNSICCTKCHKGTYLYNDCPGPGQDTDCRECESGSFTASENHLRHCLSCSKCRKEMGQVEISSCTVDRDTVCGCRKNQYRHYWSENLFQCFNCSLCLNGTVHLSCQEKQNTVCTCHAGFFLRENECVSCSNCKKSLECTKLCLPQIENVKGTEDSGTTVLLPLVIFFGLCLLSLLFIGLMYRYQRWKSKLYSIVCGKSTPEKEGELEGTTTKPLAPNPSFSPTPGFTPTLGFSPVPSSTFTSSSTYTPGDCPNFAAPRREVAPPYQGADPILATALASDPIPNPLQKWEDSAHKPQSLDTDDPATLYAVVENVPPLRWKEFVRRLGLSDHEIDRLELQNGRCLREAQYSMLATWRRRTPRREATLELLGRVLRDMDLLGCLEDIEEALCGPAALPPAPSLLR

B1: scFvIG11 (scFv, V domains shown)
VH: QVQLVQSGAEVKKPGSSVKVSCKASGYTFTDFYINWVRQAPGQGLEWIGEIVPTQGEAKYNDKFKARVTITADKSTSTAYMELSSLRSEDTAVYYCARWDFLDYWGQGTTVTVSS
VL: DIVMTQSPLSLPVTPGEPASISCRSSQSLLHSNGNTYLHWYLQKPGQSPQLLIYTVSNRFSGVPDRFSGSGSGTDFTLKISRVEAEDVGVYYCSQSTHVPYTFGGGTKVEIK
B2: scFvIZI06.1 (scFv, V domains shown)
VH: B1 VH with V52Y, T54Y, Q55S, E57H, K59Y, D62E
VL: B1 VL
notes: Made in the periplasm of E. coli TG1; also called ATROSAB scFv
B3: scFvT12B (scFv, V domains shown)
VH: B1 VH with Q1H, T54S
VL: B1 VL with S96G
B4: H398 (antibody, V domains shown)
VH: QVQLQESGAELARPGASVKLSCKASGYTFTDFYINWVKQRTGQGLEWIGEIYPYSGHAYYNEKFKAKATLTADKSSSTAFMQLNSLTSEDSAVYFCVRWDFLDYWGQGTTLTVSS
VL: B1 VL with T14S, P15L, E17D, P18Q, L42V, Q50K, V88L, Y92F, V109L

Key:
[1] = target: T1, human TNFR1-Fc fusion protein; assay: QCM
[2] = target: T1, human TNFR1-Fc fusion protein; assay: ELISA, human TNFR1-Fc
[3] = target: T2, human TNFR1 on cells (HT1080, HeLa, …); assay: cell-based or functional assay
[4] = target: T1, human TNFR1-Fc fusion protein; assay: QCM, human TNFR1-Fc immobilised
Description: (§1) Real-time binding dynamics in protein-protein interactions were determined by quartz crystal microbalance measurements (A-100 C-Fast or Cell-200 C-Fast, Attana, Stockholm, Sweden). One of the binding partners (ligand, e.g. TNFR1-Fc) was chemically immobilized on a carboxyl sensor chip according to the manufacturer's protocol at different densities (nearly 200 Hz in the case of saturating conditions to confirm previously published results and 50-100 Hz, in particular at about 50 Hz, to establish conditions of lower receptor density, better resembling the situation on the cellular surface). Binding experiments were performed with samples (analyte) diluted in PBST (PBS, 0.1% Tween 20) at pH 7.4 with a flow rate of 25 µl/min at 37° C. The chip was regenerated with 25 µl 5 mM NaOH or 20 mM glycine, pH 2.0. Every third measurement, an injection of running buffer was measured which was subtracted from the binding curve. Data were collected using the software provided by Attana for the particular device and analyzed by Attaché Office Evaluation software (Attana, Stockholm, Sweden) and TraceDrawe (ridgview instruments, Vange, Sweden).

[5] = target: T1, human TNFR1-Fc fusion protein; assay: QCM, soluble scFv, moderate receptor density
Description: as §1

[6] = target: T1, human TNFR1-Fc fusion protein; assay: ELISA, human TNFR1-Fc; remark: listed apart in the source
[7] = target: T2, human TNFR1 on cells (HT1080, HeLa, …); assay: cell-based or functional assay; remark: listed apart in the source
[8] = target: T1, human TNFR1-Fc fusion protein; assay: phage ELISA on human TNFR1
[9] = target: T2, human TNFR1 on cells (HT1080, HeLa, …); assay: cell-based or functional assay; remark: listed apart in the source
[10] = target: T1, human TNFR1-Fc fusion protein; assay: standard ELISA, human TNFR1-Fc
Description: (§2) FIG. 1. […] Applied were triplicates of five concentrations between 3.9 nM and 62.5 nM.
Microtiter plates were coated with 100 µl of the indicated protein (1 µg/ml in PBS, see Table 3.3) and incubated at 4° C. over night. The residual binding sites were blocked with 2% MPBS (skim milk in PBS, 200 µl per well) at room temperature for 2 hours and subsequently washed twice with PBS. 100 µl of the samples diluted in 2% MPBS were incubated at room temperature for 1 hour prior to the last incubation step with 100 µl of the HRP conjugated detection antibodies in 2% MPBS. In the case of competition experiments, both analyzed protein samples were prepared individually (either titrated or diluted to a single concentration) and mixed before they were applied to the plate. Bound protein was detected with 100 µl TMB substrate solution, the HRP-reaction was stopped by the addition of 50 µl 1 M H2SO4 and the absorption at the wavelength of 450 nm was measured using the Infinite microtiter plate reader (TECAN, Maennedorf, Switzerland). Between each incubation step and in advance of the detection, the plates were washed three times with PBST and twice with PBS.

[11] = target: T1, human TNFR1-Fc fusion protein; assay: QCM, human TNFR1-Fc immobilised, low receptor density (48 Hz)
Description: as §1

[12] = target: T1, human TNFR1-Fc fusion protein; assay: QCM, human TNFR1-Fc immobilised, high receptor density (195 Hz)
Description: as §2, §1

Binder | koff [1] | EC50 [2] | IC50 (nM), approximated; inhibition of TNF (0.1 nM) induced IL-8 release [3] | Kd [4] | koff [4] | kon [4] | relative koff (compared with scFvIZI06.1) [5] | EC50 [6] | IC50 (nM), inhibition of TNF-induced IL-8 release from HT1080 cells [7] | relative EC50 (compared with scFvIZI06.1) [8] | also measured
B1 | 0.00026 s⁻¹ | 2.6 nM | ~300 nM | 24.9 nM | 0.0036 s⁻¹ | 150000 M⁻¹ s⁻¹ | 0.31 relative to scFvIZI06.1 |  |  |  | fold KD compared with scFvIZI06.1 [1]: 2 fold; fold reduced koff compared with scFvIZI06.1 [1]: ~3 fold
B2 | 0.00076 s⁻¹ | 3.8 nM | ~200 nM | 28.9 nM | 0.014 s⁻¹ | 500000 M⁻¹ s⁻¹ | 1 relative to scFvIZI06.1 | 3.07 nM | 932 nM | 1 relative to scFvIZI06.1 | 
B3 |  | 2 nM | ~45 nM |  |  |  | 0.25 relative to scFvIZI06.1 | 1.14 nM | 309 nM | 0.017 relative to scFvIZI06.1 | Improved (factor of EC50 regarding scFvIG11) [2]: 1.3 fold; Improved (factor of IC50 regarding scFvIG11) [3]: ~6.7 fold; Improved (factor of KD regarding scFvIG11) [4]: 4.1 fold; Improved (factor of koff regarding scFvIG11) [4]: 2 fold; Improved (factor of kon regarding scFvIG11) [4]: 2.1 fold
B4 |  |  |  |  |  |  |  |  |  |  | IC50, LT [nM] (inhibition of IL-8 release from HT1080 cells induced by LTα) [9]: 0.65 nM; IC50, TNF [nM] (inhibition of IL-8 release from HT1080 cells induced by 0.1 nM TNF) [9]: 4.1 nM; EC50 [10]: 0.15 nM; Kd [11]: 1.6 nM; koff [11]: 0.00062 s⁻¹; Kd [12]: 0.23 nM
